Test results taken from PMC13638050.

Tests used:
[1] = target: influenza B/Lee/1940 (B/Lee40) HA (influenza B virus B/Lee/1940); test: BLI
[2] = target: H3N2 A/Singapore/INFIMH-16-0019/2016 (H3/Sing16) HA (influenza A virus H3N2 A/Singapore/INFIMH-16-0019/2016); test: BLI

influenza B/Lee/1940 (B/Lee40) HA (influenza B virus B/Lee/1940), sequence (P03460 16-552 limits assumed): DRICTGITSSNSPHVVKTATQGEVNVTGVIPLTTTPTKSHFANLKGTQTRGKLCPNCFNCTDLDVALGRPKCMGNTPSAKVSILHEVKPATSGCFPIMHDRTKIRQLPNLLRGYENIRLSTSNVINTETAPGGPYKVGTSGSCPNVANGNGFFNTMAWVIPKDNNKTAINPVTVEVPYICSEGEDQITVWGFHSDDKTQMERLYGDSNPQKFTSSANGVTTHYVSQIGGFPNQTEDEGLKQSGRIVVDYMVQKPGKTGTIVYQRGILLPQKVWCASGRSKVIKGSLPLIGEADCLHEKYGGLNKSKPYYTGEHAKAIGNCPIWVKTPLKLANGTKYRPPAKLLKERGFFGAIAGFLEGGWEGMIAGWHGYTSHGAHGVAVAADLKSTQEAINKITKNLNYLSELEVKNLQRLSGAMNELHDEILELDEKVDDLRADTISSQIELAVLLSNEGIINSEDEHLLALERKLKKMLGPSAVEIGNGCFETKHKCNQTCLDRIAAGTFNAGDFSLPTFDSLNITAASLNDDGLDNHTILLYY

somatic CR9114 Fab
Kd [1]: 0.11 µM
Kd [2]: 0.036 µM
